This is an account of results in article PMC7065593 (Nature, 2019).

The target in this assay is Gαi1 subunit (human, UniProt P63096). Put plainly: cryo-EM structure.

B1: hNTSR1(∆ICL3; residues 20-418, A85L, ∆282-291) (receptor)
chain: QRAQAGLEEALLAPGFGNASGNASERVLAAPSSELDVNTDIYSKVLVTAVYLALFVVGTVGNTVTLFTLARKKSLQSLQSTVHYHLGSLALSDLLTLLLAMPVELYNFIWVHHPWAFGDAGCRGYYFLRDACTYATALNVASLSVERYLAICHPFKAKTLMSRSRTKKFISAIWLASALLAVPMLFTMGEQNRSADGQHAGGLVCTPTIHTATVKVVIQVNTFMSFIFPMVVISVLNTIIANKLTVMVRQAAEQGQVCTVGGPGRVQALRHGVRVLRAVVIAFVVCWLPYHVRRLMFCYISDEQWTPFLYDFYHYFYMVTNALFYVSSTINPILYNLVSANFRHIFLATLACLCPVWRRRRKRPAFSRKADSVSSNHTLSSNATRETLY
For the molecule B1, the binding result is “binds”.
